Experimental data: US20230257448A1 (TWIST BIOSCIENCE, published 2023)

Target: T1, S1 monomer of SARS-CoV-2 Omicron (SARS-CoV-2, UniProt P0DTC2 16-685)
T1 construct: domain: S1
Assay: SPR (Carterra LSA, antibody amine-coupled to the chip, spike protein as analyte)

B1: 3-31 (Fc fusion)
chain: EVQLVESGGGLVQPGGSLRLSCAASGSTFSINAMGWFRQAPGKEREFVAGITSSGGYTNYADSVKGRFTISADNSKNTAYLQMNSLKPEDTAVYYCAADGVPEYSDYASGPVWGQGTLVTVSS
binding result: no binding
